Reference: patent US20170210813A1 (Regeneron, published 2017)
Each block holds one binder with its values, some of them ahead of it.

Key:
hPDGFRb.mmh [1] = target: T1, hPDGFRb.mmh (human, UniProt P09619 33-531); assay: Octet BLI cross-competition, 25 C; hPDGFRb.mmh on anti-Penta-His tips pre-saturated with mAb-1 H4H3374N (row 3)
T1 construct: Soluble monomeric construct; also called soluble human PDGFR-beta.mmh
Description: (§1) A cross-competition assay was conducted to assess the ability of select antibodies to compete with one another for binding to human PDGFR-beta. […] Each PDGFR-beta.mmh-coated sensor tip was saturated for 5 min with a first anti-PDGFR-beta antibody (Mab #1; 50 μg/mL). Next, each sensor tip was saturated with a solution of a second anti-PDGFR-beta antibody (Mab #2). The real time response of Mab #2 binding to PDGR-beta.mmh pre-complexed with Mab #1 was then monitored. All assays were performed at 25° C. with a flow rate of 1000 rpm on an Octet RED384 biosensor in Octet HBST buffer according to manufacturer's instructions (ForteBio Corp., Menlo Park, Calif.). Results are illustrated in FIG. 2.

hPDGFRb.mmh [2] = target: T1, hPDGFRb.mmh; assay: Octet BLI cross-competition, 25 C; hPDGFRb.mmh on anti-Penta-His tips pre-saturated with mAb-1 Control I (row 1)
Description: as §1

[3] = target: T2, full length human PDGFR-beta on HEK293 cells (human, UniProt P09619 33-1106); assay: cell-based or functional assay
[4] = target: T3, Macaca fascicularis PDGFRb.mmh (Macaca fascicularis); assay: SPR, mAb captured, 25 C
T3 construct: Soluble monomeric construct; also called mfPDGFRb.mmh
T3 chain: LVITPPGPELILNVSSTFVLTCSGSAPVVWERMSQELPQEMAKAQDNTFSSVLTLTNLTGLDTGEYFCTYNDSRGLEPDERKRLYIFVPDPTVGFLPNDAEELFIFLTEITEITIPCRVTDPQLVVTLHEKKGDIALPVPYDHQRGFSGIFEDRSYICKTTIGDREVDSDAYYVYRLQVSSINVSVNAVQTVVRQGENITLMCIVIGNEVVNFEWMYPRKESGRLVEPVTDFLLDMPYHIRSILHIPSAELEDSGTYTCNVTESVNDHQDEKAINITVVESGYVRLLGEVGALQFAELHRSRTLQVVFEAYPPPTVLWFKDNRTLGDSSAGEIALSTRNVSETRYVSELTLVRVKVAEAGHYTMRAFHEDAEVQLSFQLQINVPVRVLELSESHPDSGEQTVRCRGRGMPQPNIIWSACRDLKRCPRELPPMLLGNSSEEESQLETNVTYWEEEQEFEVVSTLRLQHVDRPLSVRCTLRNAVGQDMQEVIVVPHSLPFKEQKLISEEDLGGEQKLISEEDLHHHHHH
Description: (§2) Antibodies, expressed as either mouse Fc (prefix H1M; H2M) or human Fc (prefix H4H), were captured on their respective anti-Fc sensor surfaces (Mab capture format). […] Kinetic association (kₐ) and dissociation (kd) rate constants were determined by processing and fitting the data to a 1:1 binding model using Scrubber 2.0 curve fitting software.

hPDGFRb.mmh [5] = target: T1, hPDGFRb.mmh; assay: SPR, mAb captured, 25 C
Description: as §2

human PDGFRb.hFc [6] = target: T4, human PDGFRb.hFc (human); assay: SPR, mAb captured, 25 C
T4 construct: Soluble dimeric construct with human Fc; also called hPDGFRb.hFc
Description: as §2

hPDGFRb.mmh [7] = target: T1, hPDGFRb.mmh; assay: Octet BLI cross-competition, 25 C; hPDGFRb.mmh on anti-Penta-His tips pre-saturated with mAb-1 H4H3365N (row 2)
Description: as §1

[8] = target: T2, full length human PDGFR-beta on HEK293 …; assay: cell-based or functional assay; remark: listed apart in the source
hPDGFRb.mmh [9] = target: T1, hPDGFRb.mmh; assay: Octet BLI cross-competition, 25 C; hPDGFRb.mmh on anti-Penta-His tips pre-saturated with mAb-1 H4H3094P (row 5)
Description: as §1

hPDGFRb.mmh [10] = target: T1, hPDGFRb.mmh; assay: Octet BLI cross-competition, 25 C; hPDGFRb.mmh on anti-Penta-His tips pre-saturated with mAb-1 H4H3099S (row 6)
Description: as §1

[11] = target: T3, Macaca fascicularis PDGFRb.mmh; assay: SPR, mAb captured, 37 C
Description: as §2

hPDGFRb.mmh [12] = target: T1, hPDGFRb.mmh; assay: SPR, mAb captured, 37 C
Description: as §2

human PDGFRb.hFc [13] = target: T4, human PDGFRb.hFc; assay: SPR, mAb captured, 37 C
Description: as §2

hPDGFRb.mmh [14] = target: T1, hPDGFRb.mmh; assay: Octet BLI cross-competition, 25 C; hPDGFRb.mmh on anti-Penta-His tips pre-saturated with mAb-1 H4H3305N (row 8)
Description: as §1

hPDGFRb.mmh [15] = target: T1, hPDGFRb.mmh; assay: blocking ELISA, biot-hPDGFRb.mmh to coated PDGF-BB
hPDGFRb.mmh [16] = target: T1, hPDGFRb.mmh; assay: Octet BLI cross-competition, 25 C; hPDGFRb.mmh on anti-Penta-His tips pre-saturated with mAb-1 H4H3310N (row 9)
Description: as §1

hPDGFRb.mmh [17] = target: T1, hPDGFRb.mmh; assay: Octet BLI cross-competition, 25 C; hPDGFRb.mmh on anti-Penta-His tips pre-saturated with mAb-1 H4H3107S (row 7)
Description: as §1

hPDGFRb.mmh [18] = target: T1, hPDGFRb.mmh; assay: Octet BLI cross-competition, 25 C; hPDGFRb.mmh on anti-Penta-His tips pre-saturated with mAb-1 H4H3103S (row 4)
Description: as §1

T2 sequence (P09619 33-1106 limits assumed): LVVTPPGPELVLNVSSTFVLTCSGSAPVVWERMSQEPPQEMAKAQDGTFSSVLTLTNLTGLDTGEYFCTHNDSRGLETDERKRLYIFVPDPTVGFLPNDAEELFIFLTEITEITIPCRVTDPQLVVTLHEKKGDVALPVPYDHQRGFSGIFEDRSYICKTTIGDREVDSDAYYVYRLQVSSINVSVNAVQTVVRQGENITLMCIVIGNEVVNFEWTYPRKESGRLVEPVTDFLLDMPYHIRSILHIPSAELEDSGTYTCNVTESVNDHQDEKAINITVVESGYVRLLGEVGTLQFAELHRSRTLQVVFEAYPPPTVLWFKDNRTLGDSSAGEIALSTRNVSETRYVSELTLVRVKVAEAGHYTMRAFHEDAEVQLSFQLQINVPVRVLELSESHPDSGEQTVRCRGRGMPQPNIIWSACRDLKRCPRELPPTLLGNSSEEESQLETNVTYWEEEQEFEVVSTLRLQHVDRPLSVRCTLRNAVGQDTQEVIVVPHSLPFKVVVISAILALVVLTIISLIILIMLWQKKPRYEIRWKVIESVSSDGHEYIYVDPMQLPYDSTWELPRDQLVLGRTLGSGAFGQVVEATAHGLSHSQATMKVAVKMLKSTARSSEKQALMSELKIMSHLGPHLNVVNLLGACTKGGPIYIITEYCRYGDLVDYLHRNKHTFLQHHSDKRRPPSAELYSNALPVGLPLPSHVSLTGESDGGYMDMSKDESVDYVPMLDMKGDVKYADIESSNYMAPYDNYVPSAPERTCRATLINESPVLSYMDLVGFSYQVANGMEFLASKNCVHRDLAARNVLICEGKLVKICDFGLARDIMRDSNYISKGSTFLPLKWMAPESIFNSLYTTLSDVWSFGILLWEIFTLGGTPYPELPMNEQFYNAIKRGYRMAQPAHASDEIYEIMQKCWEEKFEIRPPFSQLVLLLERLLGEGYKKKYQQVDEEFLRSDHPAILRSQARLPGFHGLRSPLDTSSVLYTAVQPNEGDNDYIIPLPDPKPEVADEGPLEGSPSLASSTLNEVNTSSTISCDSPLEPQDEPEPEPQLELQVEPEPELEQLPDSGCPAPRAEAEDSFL

- Response of mAb-2 Binding to hPDGFRβ.mmh Pre-Complexed with mAb-1 (nm) (hPDGFRb.mmh [1]): 0.01 nm
- Response of mAb-2 Binding to hPDGFRβ.mmh Pre-Complexed with mAb-1 (nm) (hPDGFRb.mmh [2]): -0.01 nm
- IC50, blocking PDGF-BB (250 pM) activation, SRE-luciferase [3]: 2e-10 M
- IC50, blocking PDGF-DD (400 pM) activation, SRE-luciferase [3]: 2.6e-10 M
- Kd [4]: 3.24 nM
- koff [4]: 0.00116 s⁻¹
- kon [4]: 359000 M⁻¹ s⁻¹
- t1/2 [4]: 10 min
- Kd (hPDGFRb.mmh [5]): 3.13 nM
- koff (hPDGFRb.mmh [5]): 0.00105 s⁻¹
- kon (hPDGFRb.mmh [5]): 335000 M⁻¹ s⁻¹
- t1/2 (hPDGFRb.mmh [5]): 11 min
- Kd (human PDGFRb.hFc [6]): 0.264 nM
- koff (human PDGFRb.hFc [6]): 0.000164 s⁻¹
- kon (human PDGFRb.hFc [6]): 621000 M⁻¹ s⁻¹
- t1/2 (human PDGFRb.hFc [6]): 70 min
- Response of mAb-2 Binding to hPDGFRβ.mmh Pre-Complexed with mAb-1 (nm) (hPDGFRb.mmh [7]): 0.02 nm
- Percent Internalization (Relative to Control I) [8]: 87%
- Response of mAb-2 Binding to hPDGFRβ.mmh Pre-Complexed with mAb-1 (nm) (hPDGFRb.mmh [9]): 0 nm
- Response of mAb-2 Binding to hPDGFRβ.mmh Pre-Complexed with mAb-1 (nm) (hPDGFRb.mmh [10]): 0.26 nm
- Kd [11]: 10.2 nM
- koff [11]: 0.00556 s⁻¹
- kon [11]: 544000 M⁻¹ s⁻¹
- t1/2 [11]: 2 min
- Kd (hPDGFRb.mmh [12]): 10.1 nM
- koff (hPDGFRb.mmh [12]): 0.00497 s⁻¹
- kon (hPDGFRb.mmh [12]): 492000 M⁻¹ s⁻¹
- t1/2 (hPDGFRb.mmh [12]): 2 min
- Kd (human PDGFRb.hFc [13]): 0.405 nM
- koff (human PDGFRb.hFc [13]): 0.000306 s⁻¹
- kon (human PDGFRb.hFc [13]): 757000 M⁻¹ s⁻¹
- t1/2 (human PDGFRb.hFc [13]): 38 min
- Response of mAb-2 Binding to hPDGFRβ.mmh Pre-Complexed with mAb-1 (nm) (hPDGFRb.mmh [14]): 0.26 nm
- % Maximum Blocking (hPDGFRb.mmh [15]): 90%
- IC50 (hPDGFRb.mmh [15]): 0.24 nM
- Response of mAb-2 Binding to hPDGFRβ.mmh Pre-Complexed with mAb-1 (nm) (hPDGFRb.mmh [16]): 0.25 nm
- Response of mAb-2 Binding to hPDGFRβ.mmh Pre-Complexed with mAb-1 (nm) (hPDGFRb.mmh [17]): 0.24 nm
B1: H4H3103S (antibody, human IgG4, V domains shown)
VH: EVQLLQSGGGLVQPGGSLRLSCAASGFTFSHYWMSWVRQGPGKGLEWVATIKKDGSESYYVDSVRGRFTISRDNAKNSLYLQMNSLRTEDTAVYYCARDIVTPNVGYYFGMDVWGQGTTVTVSS
VL: DIQMTQSPSTLSASVGDRVTITCRASQSISSWLSWYQQKPGKAPKLLIYMASTLESGVPSRFSGSGSGTDFTLTITSLQPDDFATYYCQQSNSYSRTFGHGTKLEIK
notes: human IgG4 Fc (H4H prefix)

- Response of mAb-2 Binding to hPDGFRβ.mmh Pre-Complexed with mAb-1 (nm) (hPDGFRb.mmh [1]): 0.31 nm
- Response of mAb-2 Binding to hPDGFRβ.mmh Pre-Complexed with mAb-1 (nm) (hPDGFRb.mmh [18]): 0.33 nm
- Response of mAb-2 Binding to hPDGFRβ.mmh Pre-Complexed with mAb-1 (nm) (hPDGFRb.mmh [2]): 0.28 nm
- IC50, blocking PDGF-BB (250 pM) activation, SRE-luciferase [3]: 1.7e-10 M
- IC50, blocking PDGF-DD (400 pM) activation, SRE-luciferase [3]: 2.4e-10 M
- Kd [4]: 0.836 nM
- koff [4]: 0.000198 s⁻¹
- kon [4]: 236000 M⁻¹ s⁻¹
- t1/2 [4]: 58 min
- Kd (hPDGFRb.mmh [5]): 0.863 nM
- koff (hPDGFRb.mmh [5]): 0.000191 s⁻¹
- kon (hPDGFRb.mmh [5]): 221000 M⁻¹ s⁻¹
- t1/2 (hPDGFRb.mmh [5]): 61 min
- Kd (human PDGFRb.hFc [6]): 0.0801 nM
- koff (human PDGFRb.hFc [6]): 4.24e-05 s⁻¹
- kon (human PDGFRb.hFc [6]): 529000 M⁻¹ s⁻¹
- t1/2 (human PDGFRb.hFc [6]): 272 min
- Response of mAb-2 Binding to hPDGFRβ.mmh Pre-Complexed with mAb-1 (nm) (hPDGFRb.mmh [7]): 0.32 nm
- Percent Internalization (Relative to Control I) [8]: 92%
- Response of mAb-2 Binding to hPDGFRβ.mmh Pre-Complexed with mAb-1 (nm) (hPDGFRb.mmh [9]): 0.36 nm
- Response of mAb-2 Binding to hPDGFRβ.mmh Pre-Complexed with mAb-1 (nm) (hPDGFRb.mmh [10]): 0.01 nm
- Kd [11]: 1.38 nM
- koff [11]: 0.000942 s⁻¹
- kon [11]: 683000 M⁻¹ s⁻¹
- t1/2 [11]: 12 min
- Kd (hPDGFRb.mmh [12]): 1.45 nM
- koff (hPDGFRb.mmh [12]): 0.000879 s⁻¹
- kon (hPDGFRb.mmh [12]): 605000 M⁻¹ s⁻¹
- t1/2 (hPDGFRb.mmh [12]): 13 min
- Kd (human PDGFRb.hFc [13]): 0.165 nM
- koff (human PDGFRb.hFc [13]): 0.000115 s⁻¹
- kon (human PDGFRb.hFc [13]): 695000 M⁻¹ s⁻¹
- t1/2 (human PDGFRb.hFc [13]): 101 min
- Response of mAb-2 Binding to hPDGFRβ.mmh Pre-Complexed with mAb-1 (nm) (hPDGFRb.mmh [14]): 0.02 nm
- % Maximum Blocking (hPDGFRb.mmh [15]): 83%
- IC50 (hPDGFRb.mmh [15]): 0.066 nM
- Response of mAb-2 Binding to hPDGFRβ.mmh Pre-Complexed with mAb-1 (nm) (hPDGFRb.mmh [16]): 0.02 nm
B2: H4H3107S (antibody, human IgG4, V domains shown)
VH: QVQLVESGGGFVQPGGSLRLSCAASGFTFTNYAMSWVRQAPGKGLEWVSAISGVGGSTYYADSVKGRFTISRDTSKNMLYLQMNSLRAEDTAVYYCAKAPHWGPFGSWGQGTLVTVSS
VL: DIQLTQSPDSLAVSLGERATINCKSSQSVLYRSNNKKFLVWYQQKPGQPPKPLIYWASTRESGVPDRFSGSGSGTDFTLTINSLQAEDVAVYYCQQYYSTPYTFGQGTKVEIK
notes: human IgG4 Fc (H4H prefix)
